Here are results for 9 molecules from US20240182575A1 (Ablynx, published 2024).

Assay [1] has as its target T1, HuCD28-HuIgG1 (fusion protein of the extracellular part of human CD28 and human Fc gamma 1, R&D Systems Cat … (human, UniProt P10747 19-152; P01857 100-330 = IgG part).
T1 construct: extracellular domain;domain: Fc; bought; also called CD28-Ig; hCD28-Fc
The experiment in a line: competition ELISA, periplasmic extract, CD28-hFc in solution; blocked ligand coated B7-1-muFc. The source says:
This mixture was applied on the coated B7-1 and CD28 was allowed to bind to the immobilized B7-1.

Assay [2] has as its target T2, human CD28 on Jurkat cells (human, UniProt P10747 19-220).
T2 construct: whole, on cells; also called native form of the CD28 antigen; cell expressed CD28
Put plainly: FACS, Jurkat cells. As for the experimental part:
Binding of putative CD28 reactive Nanobodies clones was detected using unlabeled anti-c-myc tag mouse monoclonal antibody 9E10, followed by a phycoerythrin conjugated F(ab′)2 derived from goat-anti-mouse IgG (human and bovine crossabsorbed), and read on a BD FACSarray instrument. Dead cells were excluded from the analysis by gating out TOPRO3 vital dye positive scoring cells. Binding of the Nanobodies to cells was evaluated in BD FACSarray control software as PE channel histograms.

Assay [3] deals with T2, human CD28 on Jurkat cells. Put plainly: FACS competition, Jurkat cells; blocked ligand CD86-Fc. An excerpt: (§1) The potency of cell-expressed CD28 binding Nanobodies to inhibit the interaction of CD28 with either CD80 or CD86 was also ranked using FACS based screening method. […] Dead cells were stained by including TOPRO3 vital dye in the final resuspension buffer. All samples were read on a BD FACSarray instrument. Dead cells were excluded from the analysis by gating out TOPRO3 vital dye positive scoring cells.

For assay [4], the target named is T2, human CD28 on Jurkat cells. Put plainly: FACS competition, Jurkat cells; blocked ligand CD80-Fc.
Text: as §1

Assay [5] has as its target T1, HuCD28-HuIgG1 (fusion protein of the …). Put plainly: competition ELISA, CD28-hFc in solution; blocked ligand coated B7-1-muFc.
The target of assay [6] is T3, HuCTLA4-HuIgG1 (fusion protein of the extracellular part of human CD152 and human Fc gamma 1, CTLA4-Ig) (human, UniProt P16410 36-161).
T3 construct: extracellular domain; also called CTLA4-hFc; CTLA4-Fc; not shown: human Fc gamma 1
Put plainly: competition ELISA, CTLA4-hFc in solution; blocked ligand coated B7-1-muFc. On the procedure: In order to determine B7-1 competition efficiency of CTLA4 binding Nanobodies, the purified clones were tested in an ELISA competition assay setup.

Assay [7] concerns the target T3, HuCTLA4-HuIgG1 (fusion protein of the …). Put plainly: competition ELISA, CTLA4-hFc in solution; blocked ligand coated B7-2-muFc.
The target is the same in assay [8]. Put plainly: competition ELISA, CTLA4-hFc in solution; blocked ligand coated B7-1-muFc. This is another data set of the same source.
Assay [9] concerns the target T4, rhB7-H2-Fc (fusion protein of the extracellular part of human B7-H2 (ICOSL) and mouse Fc gamma 1, R&D Systems … (human; mouse, UniProt O75144 19-256; P01868 98-324 = IgG part, limits assumed).
T4 construct: extracellular domain;domain: Fc; bought; also called B7-H2 ectodomain
Put plainly: competition ELISA, periplasmic extract, coated B7-H2; blocked ligand ICOS-biotin. On the procedure:
Binding specificity was determined based on OD values compared to controls having received no Nanobody (high control).
After expression, the Nanobodies were purified via the His-tag on Talon beads.

Assay [10] addresses T5, cynomolgus monkey CTLA4 on stably transfected CHO-K1 cells (human CTLA4 cDNA with S13N, I17T and L105M) (human backbone with cynomolgus monkey …, UniProt P16410 36-223).
T5 chain: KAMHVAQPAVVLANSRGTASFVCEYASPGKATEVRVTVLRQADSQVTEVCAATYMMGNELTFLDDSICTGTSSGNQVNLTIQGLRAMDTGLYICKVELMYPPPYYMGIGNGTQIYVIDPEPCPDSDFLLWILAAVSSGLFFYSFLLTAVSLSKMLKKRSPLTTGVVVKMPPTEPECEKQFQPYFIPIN
Put plainly: FACS, direct binding titration on cyno CTLA4 CHO cells (head prints IC50).

Assay [11] addresses T6, human CTLA4 (Y201 mutated to valine) on stably transfected CHO-K1 cells (human, UniProt P16410 36-223).
T6 construct: whole, on cells; the mutation of the intracellular position Y201 keeps the protein on the membrane; also called human CTLA4 overexpressing CHO cells; human CTLA4 transfectant
Put plainly: competition FACS on human CTLA4 CHO cells; competitor HuCD80-HuIgG1 10 nM. The source says: (§2) The potency of selected Nanobodies to inhibit the interaction of CTLA4 with CD80 was also ranked using FACS based screening method. […] This concentration was previously determined to be the minimal amount required to saturate all CD80 binding sites on both human and cyno CTLA4 expressing CHO cell clones in the absence of any CTLA4 interaction blocking proteins. […] Dead cells were stained by including TOPRO3 vital dye in the final resuspension buffer. All samples were read on a BD FACSarray instrument. Dead cells were excluded from the analysis by gating out TOPRO3 vital dye positive scoring cells.

Assay [12] has as its target T6, human CTLA4 (Y201 mutated to valine) on …. The experiment in a line: FACS, direct binding titration on human CTLA4 CHO cells (head prints IC50). On the procedure:
Binding of putative CTLA4 reactive Nanobodies clones was detected using unlabeled anti-c-myc tag mouse monoclonal antibody 9E10, followed by a phycoerythrin conjugated F(ab′)2 derived from goat-anti-mouse IgG (human and bovine crossabsorbed), and read on a BD FACSarray instrument. Dead cells were excluded from the analysis by gating out TOPRO3 vital dye positive scoring cells. Binding of the Nanobodies to cells was evaluated in BD FACSarray control software as PE channel histograms.

For assay [13], the target named is T3, HuCTLA4-HuIgG1 (fusion protein of the …). The experiment in a line: alphascreen; competitor biotinylated HuCD80-MuIgG2a. The source says: Individual clones were scored as putative CTLA4/CD80 interaction inhibiting if the presence of the periplasmic extract decreased the fluorescent signal of the acceptor beads.
Assay [14] has the same target. Put plainly: SPR, Biacore T100, CTLA4-Ig amine-coupled. As for the experimental part:
Affinity constants (Kd) of individual purified Nanobody clones were determined by surface plasmon resonance on a Biacore T100 instrument. […] Remaining reactive groups were inactivated using ethanolamine. […] Each sample was injected for 2 min at a flow rate of 45 μl/min to allow for binding to chip-bound antigen. Next, binding buffer without Nanobody was sent over the chip at the same flow rate to allow for dissociation of bound Nanobody. After 2 min, remaining bound analyte was removed by injecting regeneration solution (10 mM Glycine/HCl pH 1.5). Binding curves obtained at different concentrations of Nanobody were used to calculate KD values. For some clones, only a single undetermined concentrations of Nanobody was injected.

Assay [15] addresses T6, human CTLA4 (Y201 mutated to valine) on …. Put plainly: FACS competition, human CTLA4 CHO cells; blocked ligand CD80-Fc.
Text: as §2

B1: 65G2 (VHH)
VHH: EVQLVESGGGLVQPGGSLRLSCAASGFTLDAYAIHWFRQAPGKEREGVSCISSSDGSTYYANSVKGRFTISRDNAKNAVYLQMNSLKPEDTAVYYCATAKRCWGLSYEYDYWGQGTQVTVSS
notes: Nanobody against CD28
Take B1: the binding result in assay [1] and in [2] was “binds” each time.

B2: 65C4 (VHH)
VHH: EVQLVESGGGLVQAGGSLRLSCKAAGRTFSSYAMGWFRQAPGKEREFVASIEWDGGGAYYEEAVKGRFTISRDNTKNTVYLQMDSLRPEDTAVYYCAASRWRTALTNYYDVADWGQGTQVTVSS
notes: Nanobody against CD28
As to B2, the entries for the “IC50 (read off the curve)” value in [3], in [4] and in [5] were approximately 7 ng/well, approximately 10 ng/well and approximately 100 nM, respectively. The “EC50 (read off the curve)” value in assay [2] is approximately 20 ng/well.

B3: 65D10 (VHH)
VHH: EVQLVESGGGLVQAGGSLRLSCAASGRTSSTATVGWFRQAPGKEREFVAVINWRSGFTYYADSVKGRFTISREYAKNTVYLQMDSLKPEDTAVYSCAADLGGRTLYGGIHYSPEEYAYWGQGTQVTVSS
notes: Nanobody against CTLA4; also called 65D10 (4-4)
Take B3: the “IC50 (read off the curve)” value in assay [6] is approximately 200 nM.

B4: 65C2 (VHH)
VHH: EVQLVESGGGLVQAGGSLRLSCAASGLTFSNYVMGWFRQAPGKEREFVGTISWDGSDTYYTHSVKGRFTISRDNAKNVVNLQMNSLKPEDTAVYYCAADYRPGGLLSLGKNEYDYWGQGTQVTVSS
notes: Nanobody against CD28
With B4, the results for the “IC50 (read off the curve)” value in [3], in assay [4] and in assay [5] were approximately 2 ng/well, approximately 3 ng/well and approximately 90 nM, respectively. Further, the “EC50 (read off the curve)” value in assay [2] was approximately 2 ng/well.

B5: 65H7 (VHH)
VHH: EVQLVESGGGLVQPGGSLRLSCAASGSILSIAVAGWYRRQPGKERELVATISPGNNTHYVDSVKGRFTISRDNAKNTVYLQMTTLKPDDTAAYYCNAKGSILLNAFDYWGKGTQVTVSS
notes: Nanobody against CTLA4; also called 65H7 (4-1)
On to B5, for which the “IC50 (read off the curve)” value in [6] is approximately 100 nM; in assay [7], approximately 200 nM; in assay [8], approximately 100 nM.

B6: 66B5 (VHH)
VHH: EVQLVESGGGLVQPGESLRLSCAASKSIFSISVMAWYRQAPGKQRELVARITPGGNTNYVDSVQGRFTISRDNAKNTVYLQMNSLKPEDTAVYYCNAQGSLLLAKYDYYGQGTQVTVSS
notes: Nanobody against CTLA4
Take B6: the binding result in assay [7] is “binds”.

B7: 95G6 (VHH)
VHH: EVQLVESGGALVQPGGSLRLSCAASGFTLGDYVIGWFRQAPGKEREWVSGISSRDGTTYYADSVKGRFTISRDNAKNTMYLQMNSLKPEDTAVYYCALRSGIAVARAPSNYDYWGQGTQVTVSS
notes: Nanobody against B7-H2 (ICOSL)
For the molecule B7, the binding result in assay [9] is recorded as “binds”.

B8: 4CTLAPMP11F1 (VHH)
VHH: EVQLVESGGGLVQAGGSLRLSCAASGGTFSFYGMGWFRQAPGKEQEFVADIRTSAGRTYYADSVKGRFTISRDNAKNTVYLQMNSLKPEDTAVYYCAAEMSGISGWDYWGQGTQVTVSS
notes: short label tied to the entry by the clone code only; also called 11F1 WT; not shown: C-terminal c-myc tag and His6 tag
For B8, the half-maximal inhibitory concentration (IC50) in [10] was 5.51 nM; in [11] it was 36.4 nM; in assay [12], 4.55 nM; in assay [13], 1.04 nM. Besides, the dissociation constant Kd in [14] came out at 10 nM. Also, in assay [14], the koff turned out to be 0.0187 s⁻¹. For the same molecule, in [14], the on-rate (kon) was determined as 1.86e+06 M⁻¹ s⁻¹.

B9: 4CTLAPMP02F4 (VHH)
VHH: EVQLVESGGGLVQTGGSLRLSCAASGRTFSNYTMGWFRQAPGKDREFVAAISRSGALKAYADSVKGRFTPSRDNAKKMAYLQMNSLKPEDTAVYYCAAAPVPWGTRPSFFPYDSWGQGTQVTVSS
notes: short label tied to the entry by the clone code only; not shown: C-terminal c-myc tag and His6 tag
Regarding B9, the IC50 came to 2.36 nM in [10], 11.4 nM in assay [11], 2.38 nM in assay [12] and 0.827 nM in [13]. Further, the “IC50 (read off the curve)” value in assay [15] is approximately 10 nM. In addition, in assay [14], binding was characterised by a dissociation constant (Kd) of 0.466 nM. This molecule gave a dissociation rate constant (koff) in assay [14] of 0.00266 s⁻¹. In addition, the kon in assay [14] came to 5.69e+06 M⁻¹ s⁻¹.
